Laboratory results from patent US20250270343A1 (Alector, published 2025).
Positions count from the first letter of the chain named. Each block holds one binder with its values, some of them ahead of it.

Key:
[1] = target: T1, mouse GPNMB endogenously expressed on B16F10 cells (mouse, UniProt Q99P91 23-574); assay: FACS, B16F10 cells
T1 construct: whole, on cells; also called moGPNMB
T1 sequence (looked up): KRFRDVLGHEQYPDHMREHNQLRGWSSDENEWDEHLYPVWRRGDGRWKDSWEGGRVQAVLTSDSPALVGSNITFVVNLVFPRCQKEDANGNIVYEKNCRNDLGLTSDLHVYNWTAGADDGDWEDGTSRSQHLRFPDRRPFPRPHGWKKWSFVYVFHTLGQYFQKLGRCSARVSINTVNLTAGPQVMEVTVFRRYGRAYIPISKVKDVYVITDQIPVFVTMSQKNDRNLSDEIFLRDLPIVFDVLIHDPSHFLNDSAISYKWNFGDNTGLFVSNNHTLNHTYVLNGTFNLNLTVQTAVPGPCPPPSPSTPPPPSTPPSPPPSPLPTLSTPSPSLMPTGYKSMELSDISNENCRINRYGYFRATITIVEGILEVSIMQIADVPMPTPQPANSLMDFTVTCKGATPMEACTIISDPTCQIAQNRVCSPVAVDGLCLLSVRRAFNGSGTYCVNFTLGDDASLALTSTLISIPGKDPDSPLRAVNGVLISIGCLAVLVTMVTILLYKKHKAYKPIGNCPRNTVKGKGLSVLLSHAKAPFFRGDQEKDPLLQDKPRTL
Protocol: (§1) Recombinant anti-GPNMB antibodies of the present disclosure were examined for their ability to bind human and/or mouse GPNMB expressed on Freestyle293-huGPNMB+ or B16F10 cells, respectively. B16F10 cells are a murine melanoma cell line from a C57BL/6J mouse that endogenously express high levels of mouse GPNMB. The antibodies were also tested for their ability to bind to a human macrophage cell line (U937 cells) engineered to express human GPNMB. Cells were harvested, plated at 100,000 cells/well in a 96-well round bottom plate, and incubated in 100 μl FACS buffer (PBS containing 2% FBS, 2 mM EDTA) containing anti-GPNMB monoclonal antibodies of the present disclosure for 30 minutes on ice. Cells were then washed and incubated in 100 ul FACS buffer containing 1 μg/ml APC-conjugated anti-human IgG secondary antibody for 30 minutes in ice. Cells were washed twice in cold FACS buffer and acquired on a BD FACS Canto. Data analysis and calculation of MFI values was performed with FlowJo (TreeStar) software version 10.0.7. […]

[2] = target: T1, mouse GPNMB endogenously expressed on …; assay: FACS on B16F10 mouse melanoma cells (endogenous mouse GPNMB); single antibody concentration (not given); APC anti-human IgG secondary; MFI as fold over background
Protocol: as §1

[3] = target: T2, full-length untagged human GPNMB expressed on cells (human, UniProt Q14956 23-572); assay: cell-based or functional assay
T2 sequence: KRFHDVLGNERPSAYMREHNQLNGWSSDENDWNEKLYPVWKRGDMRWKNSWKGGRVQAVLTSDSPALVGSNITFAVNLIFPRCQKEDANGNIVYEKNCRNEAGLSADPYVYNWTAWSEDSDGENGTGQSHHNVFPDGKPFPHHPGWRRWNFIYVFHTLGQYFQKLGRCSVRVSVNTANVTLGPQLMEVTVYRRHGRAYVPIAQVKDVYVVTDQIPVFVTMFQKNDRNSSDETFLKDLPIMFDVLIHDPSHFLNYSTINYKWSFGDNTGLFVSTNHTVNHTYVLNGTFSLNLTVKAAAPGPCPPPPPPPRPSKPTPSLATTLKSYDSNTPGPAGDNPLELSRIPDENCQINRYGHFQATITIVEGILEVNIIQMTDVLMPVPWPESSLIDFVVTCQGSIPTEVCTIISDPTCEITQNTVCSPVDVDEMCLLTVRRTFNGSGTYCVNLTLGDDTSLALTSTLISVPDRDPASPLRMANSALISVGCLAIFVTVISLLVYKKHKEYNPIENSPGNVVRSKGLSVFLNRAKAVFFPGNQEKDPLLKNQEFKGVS

[4] = target: T3, soluble cynomolgus GPNMB (recombinant extracellular domain) (cynomolgus, UniProt Q14956 23-499 (human entry), limits assumed); assay: SPR Carterra, Ab immobilized
T3 chain: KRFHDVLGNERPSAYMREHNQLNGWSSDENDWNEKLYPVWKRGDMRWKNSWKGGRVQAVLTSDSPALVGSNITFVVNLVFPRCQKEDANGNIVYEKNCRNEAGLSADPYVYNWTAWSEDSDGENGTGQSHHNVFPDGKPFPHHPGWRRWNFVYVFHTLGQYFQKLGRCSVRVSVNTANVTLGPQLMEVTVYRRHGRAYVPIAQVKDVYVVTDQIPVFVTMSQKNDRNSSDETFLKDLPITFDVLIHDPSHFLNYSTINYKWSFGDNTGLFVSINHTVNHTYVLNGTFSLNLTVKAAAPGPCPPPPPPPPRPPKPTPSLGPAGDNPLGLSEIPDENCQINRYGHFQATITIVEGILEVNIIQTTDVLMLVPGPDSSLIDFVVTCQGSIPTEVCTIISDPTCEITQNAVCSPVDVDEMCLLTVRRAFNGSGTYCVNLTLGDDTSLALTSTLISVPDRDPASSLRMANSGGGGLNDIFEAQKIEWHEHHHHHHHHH
Method in brief: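 Antibodies amine-coupled on HC200M chip in a 96-spot array; recombinant GPNMB ECD analytes injected at 2.5–600 nM, lowest to highest, without regeneration. Running buffer HBS-EP+ with 0.5 mg/ml BSA; two buffer blanks between species series. Kinetics fitted to yield affinity estimates.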

- MFI fold over background [1]: 1 fold
- binding result [2]: no binding
- CD40 (FoB) [3]: 1.56 FoB
- CD80 (FoB) [3]: 1.2 FoB
- GCase (FoB) [3]: 1.22 FoB
- PDL1 (FoB) [3]: 1.48 FoB
- Kd [4]: 8.3 nM
- koff [4]: 0.00061 s⁻¹
- kon [4]: 77000 M⁻¹ s⁻¹
B1: anti-GPNMB antibody GPN-24 (antibody, human IgG1, V domains shown)
VH: QVQLQQPGAELVKPGASVKMSCKASGYTFTSYWITWVKQRPGQGLEWIGDIHPGSGRSNYNEKFKNKATLNVDTSSSTVYMQLSSLTSEDSAVYYCARDYLFAYWGQGTLVTVSA
VL: DIQMTQSPSSLSASLGERVSLTCRASQEISGYLSWLQQKPDGTIKRLIYSTSTLDSGVPKRFSGSRSGSDYSLTISSLESEDFADYYCLQYTSSPPTFGGGTKLEIK
notes: chimeric

- MFI fold over background [1]: 1 fold
- binding result [2]: no binding
- CD40 (FoB) [3]: 1.74 FoB
- CD80 (FoB) [3]: 1.36 FoB
- GCase (FoB) [3]: 1.05 FoB
- PDL1 (FoB) [3]: 1.7 FoB
- Kd [4]: 31 nM
- koff [4]: 0.0034 s⁻¹
- kon [4]: 110000 M⁻¹ s⁻¹
B2: anti-GPNMB antibody GPN-01 (antibody, human IgG1, V domains shown)
VH: QVQLQQSGAELAKPGASVKLSCKASGYNFTNYCIHWVKQRPGQGLEWIGYINPSTGYTEYNQKFKDKATLTADKSSTTAYMQLSSLTSEDSAVYYCARGRYDEFTYWGQGTLVTVSA
VL: DIVLTQSPASLAVSLGQRATISCRASKSVSTSTYSYMHWYQQKPGQPPKLLIYLASNLESGVPARFSGSGSGTDFTLNIHPVEEEDAATYYCQHSRELPPTFGGGTKLEIK
notes: chimeric

- MFI fold over background [1]: 1.6 fold
- CD40 (FoB) [3]: 1.06 FoB
- CD80 (FoB) [3]: 1.08 FoB
- GCase (FoB) [3]: 1.01 FoB
- PDL1 (FoB) [3]: 1.05 FoB
B3: anti-GPNMB antibody GPN-43 (antibody, human IgG1, V domains shown)
VH: EVQLQQSGPELVKPGASVKISCKASGYTFTDYYMNWVRQSHGKSLEWIGDINPYHGGSTYNQKIKVKATLTVDKSSSTAYMELRSLTSEDSAVYYCARNWPYFDYWGQGTTLTVSS
VL: DIQMTQSPASLSASVGETVTITCRASENIYSFLVWYQQKQGKSPQLLVYNAKTLAEGVPSRFSGSGSGTQFSLKISSLQPEDFGSYYCQHHFGTPPYTFGGGTKLEIK
notes: chimeric

- MFI fold over background [1]: 3.4 fold
- CD40 (FoB) [3]: 1.53 FoB
- CD80 (FoB) [3]: 1.46 FoB
- PDL1 (FoB) [3]: 1.44 FoB
- Kd [4]: 40.1 nM
- koff [4]: 0.0036 s⁻¹
- kon [4]: 90000 M⁻¹ s⁻¹
B4: anti-GPNMB antibody GPN-52 (antibody, human IgG1, V domains shown)
VH: DVQLQESGPGLVKPSQTVFLTCTVTGISITTGNYRWSWIRQFPGNKLEWIGYIYYSGTITYNPSLTSRITITRDTPKNEFFLEMNSLTAEDTATYYCARDLTHWYFDVWGTGTTVTVSS
VL: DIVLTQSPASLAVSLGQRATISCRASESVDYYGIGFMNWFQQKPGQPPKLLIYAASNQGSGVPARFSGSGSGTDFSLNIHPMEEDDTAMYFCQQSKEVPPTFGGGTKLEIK
notes: chimeric

- CD40 (FoB) [3]: 1.61 FoB
- CD80 (FoB) [3]: 1.5 FoB
- GCase (FoB) [3]: 1.46 FoB
- PDL1 (FoB) [3]: 1.52 FoB
- Kd [4]: 47.9 nM
- koff [4]: 0.0041 s⁻¹
- kon [4]: 86000 M⁻¹ s⁻¹
B5: anti-GPNMB antibody GPN-61 (antibody, human IgG1, V domains shown)
VH: B4 VH with I69T, E79Q, N85S, Y96F, T102R
VL: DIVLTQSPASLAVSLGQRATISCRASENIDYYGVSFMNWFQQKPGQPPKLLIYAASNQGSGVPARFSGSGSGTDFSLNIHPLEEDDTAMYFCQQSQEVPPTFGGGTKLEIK
notes: chimeric

- MFI fold over background [1]: 5.1 fold
- CD40 (FoB) [3]: 1.01 FoB
- CD80 (FoB) [3]: 1.03 FoB
- PDL1 (FoB) [3]: 1.03 FoB
B6: anti-GPNMB antibody GPN-38 (antibody, human IgG1, V domains shown)
VH: QVQLQQPGAELVRPGTSVRLSCKASGYTFTSYWIHWVKQRPGRGLEWIGVIDPSDSYTNYNQQFNVKATLTVDTSSSAAYMQLSSLTSEDSAVYYCARGLITAVNWYFDVWGTGTTVTVSS
VL: DIQMTQSPASLSTSVGEIVTITCRASENIYSYLTWYQQKQGKSPQLLVYNAKTLAEGVPSRFSGSGSGTQFSLKINSLQPEDFGTYYCQHHYGTPLTFGSGTKLEIK
notes: chimeric

- MFI fold over background [1]: 2.6 fold
B7: anti-GPNMB antibody GPN-42 (antibody, human IgG1, V domains shown)
VH: DVKLVESGEDLVKPGGSLKLSCAASGFTFSSYAMSWVRQTPEKRLEWVAYISSGGDYIYYADTVKGRFTISRDNARNTLYLQMSSLKSEDTAMYYCTRDRYYDYDVRDYYTMDYWGQGTSVTVSS
VL: DVMMTQTPLSLPVSLGDQASISCRSSQSLVHSNGNTYLHWFLQKPGQSPKLLIFRVSNRFSGVPDRFSGRGSGTDFTLKISRVEAEDLGVYFCSQTTHVPRTFGGGTTLEIK
notes: chimeric

- CD40 (FoB) [3]: 1.06 FoB
- CD80 (FoB) [3]: 1.06 FoB
- GCase (FoB) [3]: 1.02 FoB
- PDL1 (FoB) [3]: 1.14 FoB
B8: anti-GPNMB antibody GPN-48 (antibody, human IgG1, V domains shown)
VH: QVQLQQSGPELVKPGASVKLSCRASGYGFSSFWMNWVKQRPGKGLEWIGRIYPGKGDTLYNGKFKDKATLTADESSSTAYMQLSSLTSEDSAVYFCARSIYYYDYWYFDVWDTGTTVTVSS
VL: DIVMTQSHKFMSTSVGDRVNITCKASQDVNSAIAWYQQKPGQSPKLLIYSASYRFIGVPDRFTGSGSGTGFTFTISSVQAEDLAVYYCQQHYTTPLTFGAGTKLELK
notes: chimeric

- MFI fold over background [1]: 0.8 fold
- binding result [2]: no binding
- GCase (FoB) [3]: 1.01 FoB
B9: anti-GPNMB antibody GPN-37 (antibody, human IgG1, V domains shown)
VH: EVQLVESGGGLVQPGRSLKLSCAASGFTFSSKSGMAWVRQAPTKGLEWVASISNGGGDTYYRDSVKGRFTISRDNAKNTQYLQMDSLRPEDTATYYCARHRDYGYDAYFDYWGQGVMVTVSS
VL: DIQMTQSPASLSASLGETVTIECLASEDIYSSLAWYQQKPGKSPQLLIYDASSLQDGVPSRFSGSESGTQYSLEINSLQSEDAATYFCQQHHDYPYTFGAGTKLELK
notes: chimeric

- MFI fold over background [1]: 15 fold
B10: anti-GPNMB antibody GPN-41 (antibody, human IgG1, V domains shown)
VH: QLQLQQSGTEVVKPGASVKIPCKASGYAFSSYWMNWVKQRPGKGLEWIGQIYPGDGDTNDNGKFEGKATLTVDKSSNTAYIQLSSLTSEDSAVYFCARSPLHLRGSMDYWGQGTSVTVSS
VL: SIVMTQTPKFLLVSAGDRVTITCKASQSVSNDVAWFQQKPGQSPELLIYSASNRYTGVPDRFTASGYGTDFTFTISAVQAEDLAVYFCQQNYYSPFTFGGGTRLEIK
notes: chimeric

- MFI fold over background [1]: 6.9 fold
B11: anti-GPNMB antibody GPN-65 (antibody, human IgG1, V domains shown)
VH: B10 VH
VL: B10 VL with A64G, A77T
notes: chimeric

- MFI fold over background [1]: 15.4 fold
- CD40 (FoB) [3]: 1.31 FoB
- CD80 (FoB) [3]: 1.22 FoB
- GCase (FoB) [3]: 0.9 FoB
- PDL1 (FoB) [3]: 1.3 FoB
B12: anti-GPNMB antibody GPN-35 (antibody, human IgG1, V domains shown)
VH: EVQLVESGGGSVRPGRSLKLSCAAAGFTFSDYYMTWVRQAPTKGLEWVASINHDGGGTYYRDSVKGRFTISRDNARSSLYLQMDSLRSEDTGTYYCTTRAGWHWGQGVMVTVSS
VL: DIQMTQSPASLSASLGETVSIECLASEDIYNYLTWYQQKPGKSPQVLIYSASGLQDGVPSRFSGSGSGRQYSLKINGLESEDAATYFCLQDSEYPLTFGSGTKLEIK
notes: chimeric
